In patent publication US20140011978A1 (EPFL TTO, published 2014):

B2: TNC III1-5 (other)
chain: EVSPPKDLVVTEVTEETVNLAWDNEMRVTEYLVVYTPTHEGGLEMQFRVPGDQTSTIIQELEPGVEYFIRVFAILENKKSIPVSARVATYLPAPEGLKFKSIKETSVEVEWDPLDIAFETWEIIFRNMNKEDEGEITKSLRRPETSYRQTGLAPGQEYEISLHIVKNNTRGPGLKRVTTTRLDAPSQIEVKDVTDTTALITWFKPLAEIDGIELTYGIKDVPGDRTTIDLTEDENQYSIGNLKPDTEYEVSLISRRGDMSSNPAKETFTTGLDAPRNLRRVSQTDNSITLEWRNGKAAIDSYRIKYAPISGGDHAEVDVPKSQQATTKTTLTGLRPGTEYGIGVSAVKEDKESNPATINAATELDTPKDLQVSETAETSLTLLWKTPLAKFDRYRLNYSLPTGQWVGVQLPRNTTSYVLRGLEPGQEYNVLLTAEKGRHKSKPARVKASTEQAGGGSHHHHHH
notes: The secreted protein in the assays lacks the leader; also called TG-TNC III1-5; engineered TNC III1-5

Legend:
TNC III1-5 [1] = target: B2; test: SPR, TNC III1-5 on the chip, cytokine injected, BSA reference channel
Procedure: (§1) Surface plasmon resonance (SPR) was done to quantify the affinity of specific cytokines to TNC III1-5. […] Method: Surface plasmon resonance chips were functionalized with TNC III1-5 or BSA and cytokines were injected over the chips at different concentrations. The chips contained gold with free carboxyl groups that were activated to bind TNC III1-5 in one channel and BSA as a reference protein in another channel. The specific response of a cytokine to TNC III1-5 (in RU) was obtained relative to the response to BSA. Results are depicted in FIG. 5.

TNC III1-5 [2] = target: B2; test: SPR: TNC III1-5 on the chip, BSA in the reference channel, cytokine injected at rising concentrations; Langmuir fit (legend paragraph 11 says TNC III5, Example 5 paragraph 115 says TNC III1-5)
Procedure: as §1

BSA [3] = target: T1, BSA (bovine, UniProt P02769); test: ELISA: PDGF-BB or BSA coated, TNC III1-5 in solution at 0 to 1.2 µM, A450
T1 construct: negative control; also called bovine serum albumin
T1 sequence (P02769 25-607 limits assumed): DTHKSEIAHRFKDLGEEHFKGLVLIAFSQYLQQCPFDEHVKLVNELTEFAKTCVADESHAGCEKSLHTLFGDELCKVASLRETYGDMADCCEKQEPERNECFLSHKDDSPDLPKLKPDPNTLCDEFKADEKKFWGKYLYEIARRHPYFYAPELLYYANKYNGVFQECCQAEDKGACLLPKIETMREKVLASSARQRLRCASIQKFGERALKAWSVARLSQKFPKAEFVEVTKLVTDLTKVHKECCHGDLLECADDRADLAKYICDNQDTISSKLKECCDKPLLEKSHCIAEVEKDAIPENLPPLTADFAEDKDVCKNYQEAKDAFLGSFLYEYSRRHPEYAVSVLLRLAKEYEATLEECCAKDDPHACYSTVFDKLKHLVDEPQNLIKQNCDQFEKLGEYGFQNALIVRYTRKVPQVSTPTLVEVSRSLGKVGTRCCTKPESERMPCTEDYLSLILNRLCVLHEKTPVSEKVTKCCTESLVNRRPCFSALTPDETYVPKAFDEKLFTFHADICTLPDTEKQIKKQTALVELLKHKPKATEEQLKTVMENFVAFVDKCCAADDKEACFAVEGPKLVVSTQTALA
Procedure: ELISA plates were coated with cytokines or BSA and further incubated with TNC III1-5 to analyze binding of TNC III1-5 to a wide variety of cytokines. […] A large amount of heparin (4 μM) impaired binding of TNC III1-5 to these cytokines. Results are depicted in FIG. 3. Method: 50 nM of cytokine was coated for (1 hr, 37° C.). After blocking with 2% BSA (1 hr, RT). […] TNC III1-5 was detected with horseradish peroxidase (HRP)-anti-HIS in PBST (1 hr, RT) and developed with 3,3′,5,5′-tetramethylbenzidine (TMB), a soluble colorimetric HRP […]. Addition of sulfuric acid stop solution changes the color to yellow, enabling accurate measurement of the intensity at 450 nm using a spectrophotometer or plate reader. […] Heparin (4 μM) was added to TNC III1-5 to test the effect of blocking the heparin binding site of TNC III1-5, which has been defined as domain TNC III5 (Weber, Zimmermann, et al., 1995).

HGF = HGF (UniProt P14210 32-728); test: ELISA: cytokine coated (50 nM), 100 nM TNC III1-5 in solution, HRP-anti-His, A450; black bars without, white bars with 4 µM heparin
Chain of HGF (P14210 32-728 limits assumed): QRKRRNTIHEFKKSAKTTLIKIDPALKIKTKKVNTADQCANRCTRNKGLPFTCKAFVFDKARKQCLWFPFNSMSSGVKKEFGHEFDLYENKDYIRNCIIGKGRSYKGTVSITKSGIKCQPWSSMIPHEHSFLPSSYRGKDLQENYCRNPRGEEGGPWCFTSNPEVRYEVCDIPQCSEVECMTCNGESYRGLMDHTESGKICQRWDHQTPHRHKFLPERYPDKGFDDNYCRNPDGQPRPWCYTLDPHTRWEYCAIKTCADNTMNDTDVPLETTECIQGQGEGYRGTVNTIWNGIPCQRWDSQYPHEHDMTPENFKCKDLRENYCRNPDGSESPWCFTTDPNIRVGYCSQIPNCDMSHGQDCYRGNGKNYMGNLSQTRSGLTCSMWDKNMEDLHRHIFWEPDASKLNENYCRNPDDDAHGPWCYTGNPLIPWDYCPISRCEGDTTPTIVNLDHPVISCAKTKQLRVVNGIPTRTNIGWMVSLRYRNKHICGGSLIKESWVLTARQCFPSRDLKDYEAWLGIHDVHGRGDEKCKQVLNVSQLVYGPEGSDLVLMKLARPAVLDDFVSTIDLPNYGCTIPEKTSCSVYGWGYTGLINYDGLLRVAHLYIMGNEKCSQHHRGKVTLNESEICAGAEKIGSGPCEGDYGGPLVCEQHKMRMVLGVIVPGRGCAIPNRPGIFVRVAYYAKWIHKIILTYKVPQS
Procedure: (§2) ELISA plates were coated with cytokines or BSA and further incubated with TNC III1-5 to analyze binding of TNC III1-5 to a wide variety of cytokines. […] A large amount of heparin (4 μM) impaired binding of TNC III1-5 to these cytokines. Results are depicted in FIG. 3. Method: 50 nM of cytokine was coated for (1 hr, 37° C.). After blocking with 2% BSA (1 hr, RT). 100 nM TNC III1-5 was applied in PBST (0.05% tween, 0.1% bovine serum albumin (BSA)) (1 hr, RT). TNC III1-5 was detected with horseradish peroxidase (HRP)-anti-HIS in PBST (1 hr, RT) and developed with 3,3′,5,5′-tetramethylbenzidine (TMB), a soluble colorimetric HRP […]. Addition of sulfuric acid stop solution changes the color to yellow, enabling accurate measurement of the intensity at 450 nm using a spectrophotometer or plate reader. […] Heparin (4 μM) was added to TNC III1-5 to test the effect of blocking the heparin binding site of TNC III1-5, which has been defined as domain TNC III5 (Weber, Zimmermann, et al., 1995).

FGF-9 = test: ELISA: cytokine coated (50 nM), 100 nM TNC III1-5 in solution, HRP-anti-His, A450
Procedure: as §2

EGF = test: ELISA: growth factor coated, Fg fragment in solution, A450 (methods analogous to Example 3)
Procedure: as §2
(§3) ELISA plates were coated with cytokines or BSA and further incubated with Fg β15-66 to analyze binding of […] to a wide variety of cytokines. […] Results are depicted in FIG. 4. Method: The methods were analogous to those used in Example 3.

TGF-β3 = target: T2, TGF-β3 (Natural form is a disulfide-linked homodimer; one protomer is given.); test: as above
T2 chain: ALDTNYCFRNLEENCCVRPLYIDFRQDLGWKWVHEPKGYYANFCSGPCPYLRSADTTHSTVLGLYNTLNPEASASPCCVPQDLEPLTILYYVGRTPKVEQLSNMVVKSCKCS
Procedure: as §2, §3

PlGF-1 = target: T3, PlGF-1 (UniProt P49763-2 19-149); test: as above
T3 sequence (looked up): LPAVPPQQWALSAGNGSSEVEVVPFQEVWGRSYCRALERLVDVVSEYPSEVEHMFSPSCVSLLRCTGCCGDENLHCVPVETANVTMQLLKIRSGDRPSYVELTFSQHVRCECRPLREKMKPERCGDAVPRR
Procedure: as §2, §3

FGF-6 = target: T4, FGF-6 (UniProt P10767 38-208, limits assumed); test: as above
T4 sequence (looked up): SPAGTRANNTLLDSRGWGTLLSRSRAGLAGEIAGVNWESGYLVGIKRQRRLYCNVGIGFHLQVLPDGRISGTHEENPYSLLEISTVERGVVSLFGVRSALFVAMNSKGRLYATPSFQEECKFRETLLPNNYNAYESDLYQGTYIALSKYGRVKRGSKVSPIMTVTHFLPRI
Procedure: as §2, §3

BSA [4] = target: T1, BSA; test: ELISA: BSA coated as control, Fg fragment in solution, A450 (methods analogous to Example 3)
Procedure: as §2, §3

BSA [5] = target: T1, BSA; test: ELISA: GST-fused TNC domains, GST and BSA coated, 2 nM PDGF-BB in solution, anti-PDGF-BB antibody and HRP secondary, A450
Procedure: An ELISA was performed to test the affinity of different domains present in TNC1-5 to PDGF-BB as an example cytokine that has shown to bind TNC III1-5. Domain TNC III5 was defined to be responsible for cytokine binding. Method: ELISA plates were coated with individual TNC domains fused to GST, as well as GST and BSA. Wells were blocked with BSA and then incubated with 2 nM PDGF-BB. Binding of PDGF-BB was detected using an anti-PDGF-BB antibody and then a secondary horseradish peroxidase conjugated antibody.

B1: NT-3 (ligand, UniProt P20783 139-257, looked up)
chain: YAEHKSHRGEYSVCDSESLWVTDKSSAIDIRGHQVTVLGEIKTGNSPVKQYFYETRCKEARPVKNGCRGIDDKHWNSQCKTSQTYVRALTSENNKLVGWRWIRIDTSCVCALSRKIGRT
- Kd (TNC III1-5 [1]): 21 nM
- koff (TNC III1-5 [2]): 0.00106 s⁻¹
- kon (TNC III1-5 [2]): 50700 M⁻¹ s⁻¹

Binder: B2
- binding result (BSA [3]): no binding (tested: 1.2 µM)
- binding result (HGF): binds
- binding result (FGF-9): no binding (tested: 100 nM)

B3: Fg β1-66 (other)
fibrinogen Bβ chain fragment: QGVNDNEEGFFSARGHRPLDKKREEAPSLRPAPPPISGGGYRARPAKAAATQKKVERKAPDAGGCG
notes: production not given
- binding result (EGF): no binding
- binding result (TGF-β3): no binding
- binding result (PlGF-1): no binding
- binding result (FGF-6): no binding
- binding result (BSA [4]): no binding

B4: PDGF-BB (ligand, UniProt P01127 82-190, looked up)
chain: SLGSLTIAEPAMIAECKTRTEVFEISRRLIDRTNANFLVWPPCVEVQRCSGCCNNRNVQCRPTQVQLRPVQVRKIEIVRKKPIFKKATVTLEDHLACKCETVAAARPVT
notes: The name implies a homodimer of B chains
- Kd (TNC III1-5 [1]): 3.9 nM
- koff (TNC III1-5 [2]): 0.0202 s⁻¹
- kon (TNC III1-5 [2]): 5.23e+06 M⁻¹ s⁻¹
- binding result (BSA [5]): no binding (tested: 2 nM PDGF-BB)
